Test results reported in publication PMC3519786, “Novel Interactions between FOXM1 and CDC25A Regulate the Cell Cycle” (PLoS ONE, 2012).

Biological target: T1, GAL4-FOXM1 C-terminal fragment (amino acids 330-763) (human, UniProt Q08050-1 330-763)
T1 construct: FOXM1, human, C-terminal fragment, amino acids 330-763; from pCMV-XL5-FOXM1B (Origene); also called C-terminal FOXM1; C-terminus of FOXM1; source: mammalian two-hybrid fusion, U2OS, transfected
T1 sequence (looked up): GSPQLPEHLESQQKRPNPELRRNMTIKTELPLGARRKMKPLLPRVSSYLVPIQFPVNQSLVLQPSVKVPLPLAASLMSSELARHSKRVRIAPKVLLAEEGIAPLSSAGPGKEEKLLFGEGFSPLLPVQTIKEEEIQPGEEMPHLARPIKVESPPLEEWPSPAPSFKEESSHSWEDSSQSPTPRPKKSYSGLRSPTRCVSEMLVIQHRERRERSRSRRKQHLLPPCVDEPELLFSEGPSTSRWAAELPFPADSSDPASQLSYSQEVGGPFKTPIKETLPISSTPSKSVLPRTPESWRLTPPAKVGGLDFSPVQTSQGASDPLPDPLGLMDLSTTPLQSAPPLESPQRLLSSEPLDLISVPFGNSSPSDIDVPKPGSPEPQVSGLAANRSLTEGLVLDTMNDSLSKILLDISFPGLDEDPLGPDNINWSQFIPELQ
Assay: two-hybrid; mammalian two-hybrid (Checkmate, Promega) in U2OS; bait pBIND (GAL4 DNA-binding domain)-FOXM1, prey pACT (VP16 activation domain)-CDC25A, reporter pG5-luc; firefly normalised to Renilla luciferase; 2 days
Details: partners not purified

B1: VP16-CDC25A (natural protein, UniProt P30304 1-524, looked up)
chain: MELGPEPPHRRRLLFACSPPPASQPVVKALFGASAAGGLSPVTNLTVTMDQLQGLGSDYEQPLEVKNNSNLQRMGSSESTDSGFCLDSPGPLDSKENLENPMRRIHSLPQKLLGCSPALKRSHSDSLDHDIFQLIDPDENKENEAFEFKKPVRPVSRGCLHSHGLQEGKDLFTQRQNSAPARMLSSNERDSSEPGNFIPLFTPQSPVTATLSDEDDGFVDLLDGENLKNEEETPSCMASLWTAPLVMRTTNLDNRCKLFDSPSLCSSSTRSVLKRPERSQEESPPGSTKRRKSMSGASPKESTNPEKAHETLHQSLSLASSPKGTIENILDNDPRDLIGDFSKGYLFHTVAGKHQDLKYISPEIMASVLNGKFANLIKEFVIIDCRYPYEYEGGHIKGAVNLHMEEEVEDFLLKKPIVPTDGKRVIVVFHCEFSSERGPRMCRYVRERDRLGNEYPKLHYPELYVLKGGYKEFFMKCQSYCEPPSYRPMHHEDFKEDLKKFRTKSRTWAGEKSKREMYSRLKKL
notes: CDC25A (cell division cycle 25A) dual phosphatase; plasmid bought from Origene; also called pACT-CDC25A; wild-type CDC25A; source: mammalian two-hybrid fusion, U2OS, transfected
For B1, the “fold above background (normalised luciferase activity)” value was > 60000 fold.
